In paper PMC12117405:

Biological target: Lsm2/Lsm3;Lsm6/Lsm5/Lsm7;Lsm4-link-Lsm8 (human;human;human, UniProt Q9Y333;P62310;P62312;Q9Y4Y9;Q9UK45;Q9Y4Z0;O95777 …, ||)
Test: gel filtration co-elution

B1: U4-5'Δ (structured_RNA)
RNA: GGCAAUUUUUGACAGUCUCUACGGAGACUG
B1: no binding.
